Patent publication US20170210802A1 (INNATE PHARMA, published 2017)

B1: CD19-F5-NKp46-3 (bispecific antibody, human IgG1, kappa)
chain 1: not shown
chain 2: not shown
chain 3: DIVMTQSPATLSVTPGDRVSLSCRASQSISDYLHWYQQKSHESPRLLIKYASQSISGIPSRFSGSGSGSDFTLSINSVEPEDVGVYYCQNGHSFPLTFGAGTKLELKASTKGPSVFPLAPSSKSTSGGTAALGCLVKDYFPEPVTVSWNSGALTSGVHTFPAVLQSSGLYSLSSVVTVPSSSLGTQTYICNVNHKPSNTKVDKRVEPKSCDKTH
notes: Heterotrimer with dimeric Fc domain; also called Format 5 (F5)
B2: CD19-F6-NKp46-3 (bispecific antibody, human IgG1, kappa)
chain 1: not shown
chain 2: not shown
chain 3: B1 chain 3
notes: also called Format 6 (F6)

Key:
[1] = molecular target: T1, human FcRn (recombinant, Example 10) (human, UniProt P55899 24-297; P61769 21-119, limits assumed); assay: SPR, recombinant FcRn immobilised on CM5, SCK/Two state reaction
T1 construct: also called recombinant FcRn proteins

[2] = molecular target: T2, Human NKp46 recombinant proteins (human, UniProt O76036 22-258, limits assumed); assay: SPR (Biacore T100), antibody captured on Protein-A chip, recombinant human NKp46 injected (6.25-400 nM), 1:1 kinetic model
T2 construct: also called recombinant human NKp46
Description: SPR measurements were performed on a Biacore T100 apparatus (Biacore GE Healthcare) at 25° C. In all Biacore experiments HBS-EP+(Biacore GE Healthcare) and NaOH 10 mM served as running buffer and regeneration buffer respectively. Sensorgrams were analyzed with Biacore T100 Evaluation software. Protein-A was purchase from (GE Healthcare). Human NKp46 recombinant proteins were cloned, produced and purified at Innate Pharma.
Protein-A proteins were immobilized covalently to carboxyl groups in the dextran layer on a Sensor Chip CM5. The chip surface was activated with EDC/NHS (N-ethyl-N′-(3-dimethylaminopropyl) carbodiimidehydrochloride and N-hydroxysuccinimide (Biacore GE Healthcare)). Protein-A was diluted to 10 μg/ml in coupling buffer (10 mM acetate, pH 5.6) and injected until the appropriate immobilization level was reached (i.e. 2000 RU). Deactivation of the remaining activated groups was performed using 100 mM ethanolamine pH 8 (Biacore GE Healthcare).
Monovalent affinity study was done following a regular Capture-Kinetic protocol recommended by the manufacturer (Biacore GE Healthcare kinetic wizard). Seven serial dilutions of human NKp46 recombinant proteins, ranging from 6.25 to 400 nM were sequentially injected over the captured Bi-Specific antibodies and allowed to dissociate for 10 min before regeneration. The entire sensorgram sets were fitted using the 1:1 kinetic binding model.

T2 sequence (O76036 22-258 limits assumed): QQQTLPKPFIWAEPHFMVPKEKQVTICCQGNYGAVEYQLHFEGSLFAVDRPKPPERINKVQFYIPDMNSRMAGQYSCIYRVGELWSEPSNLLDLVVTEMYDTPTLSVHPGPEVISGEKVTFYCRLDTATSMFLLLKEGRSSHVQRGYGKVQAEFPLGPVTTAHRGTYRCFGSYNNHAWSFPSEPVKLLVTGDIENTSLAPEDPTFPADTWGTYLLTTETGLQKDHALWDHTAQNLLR
T1 sequence (P55899 24-297 limits assumed, form in doubt, chain 1 of 2): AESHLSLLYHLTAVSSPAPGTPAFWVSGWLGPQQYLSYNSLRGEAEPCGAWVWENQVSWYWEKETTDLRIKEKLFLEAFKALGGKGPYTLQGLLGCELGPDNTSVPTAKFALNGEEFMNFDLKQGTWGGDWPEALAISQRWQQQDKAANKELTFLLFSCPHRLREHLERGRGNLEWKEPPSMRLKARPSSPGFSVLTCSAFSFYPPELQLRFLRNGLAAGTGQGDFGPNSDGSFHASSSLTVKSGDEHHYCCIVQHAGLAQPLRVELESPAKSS
T1 sequence (P61769 21-119 limits assumed, form in doubt, chain 2 of 2): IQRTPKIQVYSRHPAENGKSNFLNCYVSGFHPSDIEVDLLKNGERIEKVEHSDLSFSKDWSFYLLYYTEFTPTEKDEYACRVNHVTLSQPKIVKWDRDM

Binder | Kd [1] [nM] | Kd [2] [nM] | koff [2] [s⁻¹] | kon [2] [M⁻¹ s⁻¹]
B1 | 2.6 | 67 | 0.0051 | 75600
B2 | 6 | 63 | 0.00503 | 79300
